Results on one molecule are retold here after publication PMC4643373.

This data set addresses FMRP RGG box (UniProt Q06787 527-554). Briefly: EMSA. (In general: Mobility shift assays separate free from complexed probe on a gel.)

Turning to GGGUACGGGAGGGUAAGGCUGUGGGUCGCGUG (structured_RNA) [NR2B mRNA (32 nt)], the binding result is on record as “binds”.
